Data as given in the DeepSol protein solubility set.

Assay: soluble on expression in E. coli; label from the status in PepcDB or PDB records

Row | Sequence | soluble on expression in E. coli
1 | MQPTSITVASYNLRNANGGDSINGNGWGQRYPVIAQIVQYHDFDIFGTQECFIHQLKDMKEALPGYDYIGVGRDDGKEKGEHSAIFYRTDKFDVIEKGDFWLSETPDVPSKGWDAVLPRICSWGHFKCKDTGFEFLFFNLHMDHIGKKARVESAFLVQDKMKELGKGKELPAILTGDFNVDQTHQSYDAFVSKGVLCDSYEKAGFRYAINGTFNDFDPNSFTESRIDHIFVSPSFQVKRYGVLTDTYRSIVGKGEKKQANDCPEEIDIKTYQARTPSDHFPVKVELEFDQRQQKLEHHHHHH | soluble
2 | GPGSMLRWQMQPVRTSVRNFIASGFPSKKLRYARLVDVEECASRPQFQKLLQSYLSDFFAKSHENGSTGSSPWFTAVPPSLRNSVEETVNYLGMLVAIDFRHWGEDPPDATPTGSRVENICGFYAELPEGSAETSGSVSYGGKRLIRGSMAMVHLLCRAVEVYHLNWHCPQFLQQFATTEDAMEALERCFLGYREDGHTSMWMPAARERVELLLSLSRSLVEKDTSFFKMLCLSEGYLYHPIFPHLGFVEMLVELHPRYYDVCVLRGEVGGGKDSDQGDEIVIPMLKLAQLTVMAIEEAVSAMDTVAANTPNVTEAPFPFSGAHGVFKDKHHLTVCCDYQLPKALRSLGLVEYDSYLASLVDTGVLLAAGGVEECCIRVAALVASDLLLDYLRSSCACTTGREWRPESTSRVWDAPALDCMLWWIGRHYVDSAVKHHLCRTIMY | not soluble
3 | MALVVQKYGGSSLESAERIRNVAERIVATKKAGNDVVVVCSAMGDTTDELLELAAAVNPVPPAREMDMLLTAGERISNALVAMAIESLGAEAQSFTGSQAGVLTTERHGNARIVDVTPGRVREALDEGKICIVAGFQGVNKETRDVTTLGRGGSDTTAVALAAALNADVCEIYSDVDGVYTADPRIVPNAQKLEKLSFEEMLELAAVGSKILVLRSVEYARAFNVPLRVRSSYSNDPGTLIAGSMEDIPVEEAVLTGVATDKSEAKVTVLGISDKPGEAAKVFRALADAEINIDMVLQNVSSVEDGTTDITFTCPRSDGRRAMEILKKLQVQGNWTNVLYDDQVGKVSLVGAGMKSHPGVTAEFMEALRDVNVNIELISTSEIRISVLIREDDLDAAARALHEQFQLGGEDEAVVYAGTGR | soluble
4 | MAMTLAEKILAKASGNTQVSPGDIVMAKVETAMVHDITGPLSVNTLKKEGISKVWDNEKIVIPFDHQIPADSINAAENHILMRNFVKEQNIKHFYDIREGVCHQVLPEKGHIVPGTVVVGADSHTCTYGAFGAFATGIGSTDMAAAFATGELWFKVPET | not soluble
5 | MGSDKIHHHHHHMTSKLTEVSTPPQAAMPKSTLANEQENKVFIIGLPRTGTTSVSVALLEQGLTVAHQAFTKQAFMLADAVSDAPCFSDYQQLDKLFPNAKFVYLDRPLDKWLPSMQMLLGRMLVHLDKDKGRFHPVMKRSFNHCFDIWQVEDVFDEAHLTACYQRHQQQVMSYFAGRDDFISIDISVTGSLAKLLQFIDLAKPDTAEFRQLQYPQLQSQPQNFPQLNFPQLNFPQLNTGRNVASWDEYKHPNKISANASGPDKRKFFDYRL | not soluble
6 | SLLLCDIGNSNANFLDDNKYFTLSIDQFLEFKNEQKIFYINVNEHLKEHLKNQKKFINLEPYFLFDTIYQGLGIDRIAACYTIEDGVVVDAGSAITIDIISNSIHLGGFILPGIANYKKIYSHISPRLKSEFNTQVSLDAFPQKTMDALSYGVFKGIYLLIKDAAQNKKLYFTGGDGQFLANYFDHAIYDKLLIFRGMKKIIKENPNLLY | soluble
7 | MPAHSFRIAAIPGDGIGLEVLPEGIRVLEAAALKHGLALEFDTFEWASCDYYLQHGKMMPDDWAEQLKQYDAIYFGAVGWPDKVPDHISLWGSLLKFRREFDQYVNIRPVRLFPGVPCALANRKVGDIDFVVVRENTEGEYSSLGGIMFENTENEIVIQESIFTRRGVDRILKYAFDLAEKRERKHVTSATKSNGMAISMPYWDKRTEAMAAHYPHVSWDKQHIDILCARFVLQPERFDVVVASNLFGDILSDLGPACAGTIGIAPSANLNPERNFPSLFEPVHGSAPDIFGKNIANPIAMIWSGALMLEFLGQGDERYQRAHDDMLNAIERVIADGSVTPDMGGTLSTQQVGAAISDTLARLD | soluble
8 | MNGNRAQPMNMPNEPHPKLKLEQYLGIQIKRQRQAQELKLADVARIAGISQGMLSKIENAQVSTSLDNLSRLCDVLGMPMSKLFSQYDQQGSSALLVRADEGLEVVRRGTEKGHTYHLLNHTRGPKKSFEAYMVTMDDASEEFPTFSHPGTEFLHLLEGELIYRHGNQLYPMQAGDSLTFDGDIPHGPEQLVQVPIKLLSIMNYGAQGD | not soluble
